Test results reported in patent publication US20180251535A1 (ARMAGEN, published 2018).

B1: chimeric HIRMAb (chimeric monoclonal antibody to the human insulin receptor) (antibody, human IgG1, kappa, V domains shown)
VH: QVQLQQSGPELVKPGALVKISCKASGYTFTNYDIHWVKQRPGQGLEWIGWIYPGDGSTKYNEKFKGKATLTADKSSSTAYMHLSSLTSEKSAVYFCAREWAYWGQGTLVTVSA
VL: DIQMTQSPSSLSASLGERVSLTCRASQDIGGNLYWLQQGPDGTIKRLIYATSSLDSGVPKRFSGSRSGSDYSLTISSLESEDFVDYYCLQYSSSPWTFGGGTKMEIKR
notes: Human IgG1 constant region, kappa light chain; also called HIR Ab; chimeric HIR Ab

How the values were obtained:
[1] = molecular target: human insulin receptor extracellular domain (HIR ECD) (human) (UniProt P06213); experiment: ELISA, HIR ECD plated, detection with biotinylated goat anti-human IgG
[2] = molecular target: human insulin receptor extracellular domain (HIR ECD) (human) (UniProt P06213); experiment: ELISA, HIR ECD plated
[3] = molecular target: T1, human insulin receptor extracellular domain (HIR ECD) (human, UniProt P06213 28-956, limits assumed); experiment: ELISA, HIR ECD plated on Nunc-Maxisorb wells, detection with biotinylated goat anti-human IgG
T1 construct: extracellular domain; Purified on a wheat germ agglutinin column from serum free medium of CHO cells permanently transfected with the HIR ECD (Coloma et al. 2000)
Experimental: (§1) The affinity of the fusion protein for the HIR extracellular domain (ECD) was determined with an ELISA. CHO cells permanently transfected with the HIR ECD were grown in serum free media (SFM), and the HIR ECD was purified with a wheat germ agglutinin affinity column, as previously described in Coloma et al. (2000) Pharm Res, 17:266-274. The HIR ECD was plated on Nunc-Maxisorb 96 well dishes and the binding of the HIR Ab, or the HIR Ab-IDS fusion protein, to the HIR ECD was detected with a biotinylated goat anti-human IgG (H+L) secondary antibody, followed by avidin and biotinylated peroxidase (Vector Labs, Burlingame, CA). The concentration of either HIR Ab or HIR Ab-IDS fusion protein that gave 50% maximal binding was determined with a non-linear regression analysis.

[4] = molecular target: T1, human insulin receptor extracellular …; experiment: ELISA, HIR ECD plated, same methods as for FIG. 11
Experimental: as §1

Row | EC50 [1] [nM] | reduction in receptor binding affinity (against the HIR Ab) [2] [%] | EC50 [3] [nM] | EC50 [4] [nM] | Molecule
1 | 4.8 | 95 | – | – | GUSB-HIR Ab fusion protein (GUSB fused to the amino terminus of the HIR Ab heavy chain) (from UniProt P08236 23-633)
2 | – | – | 0.32 | 0.41 | B1
